Source: patent US20240360176

Test system: pNaKtide

For “Src kinase (mouse, endogenous in the liver of C57BL/6J mice)”, the “Src phosphorylation in mouse liver, ratio pSrc/pSrc+cSrc by Western blot” value was “Src phosphorylation peaked in the HFD groups at week 20, with paucity on pSrc peak in the pNaKtide and Exercise groups”.
